Data as given in PMC3767169.

Biological target: complement C1q (human) (UniProt P02745)
Experiment: fluorescence polarisation

Sequence of UniProt P02745 (P02745 23-245, chain 1 of 3): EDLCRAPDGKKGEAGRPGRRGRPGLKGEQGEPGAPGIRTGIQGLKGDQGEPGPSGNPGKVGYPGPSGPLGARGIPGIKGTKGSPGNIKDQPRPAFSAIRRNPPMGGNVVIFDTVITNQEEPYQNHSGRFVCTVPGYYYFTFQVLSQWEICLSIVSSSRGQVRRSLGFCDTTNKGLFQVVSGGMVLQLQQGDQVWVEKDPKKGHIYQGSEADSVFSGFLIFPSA
Sequence of UniProt P02745 (P02746 28-253, chain 2 of 3, further chain): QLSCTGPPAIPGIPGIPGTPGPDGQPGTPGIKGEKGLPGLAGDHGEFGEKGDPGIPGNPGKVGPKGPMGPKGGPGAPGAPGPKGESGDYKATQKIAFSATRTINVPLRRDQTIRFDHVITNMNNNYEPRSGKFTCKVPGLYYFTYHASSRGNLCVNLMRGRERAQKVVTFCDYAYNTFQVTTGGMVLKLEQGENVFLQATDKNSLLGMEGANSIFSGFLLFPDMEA
Sequence of UniProt P02745 (P02747 29-245, chain 3 of 3, further chain): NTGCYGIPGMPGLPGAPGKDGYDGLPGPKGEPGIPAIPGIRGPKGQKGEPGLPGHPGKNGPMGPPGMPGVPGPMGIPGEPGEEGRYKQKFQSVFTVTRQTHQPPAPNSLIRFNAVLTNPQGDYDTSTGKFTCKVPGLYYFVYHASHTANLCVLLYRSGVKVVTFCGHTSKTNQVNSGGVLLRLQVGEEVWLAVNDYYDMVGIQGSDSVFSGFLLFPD

change in anisotropy (Δr): 0.081
Substance: modified C-reactive protein (mCRP) (from UniProt P02741 19-224) (natural protein)
